Among the data in US20230037815A1 are Kd and koff values, retold here.

Substitutions are numbered along the chain they refer to.

This test deals with cynomolgus CD19 (cynomolgus). The test can be described thus: Octet HTX (ForteBio), IgG on AHC sensor, 1:1 fit. Background: BLI is a label-free optical method that tracks binding on a fibre tip over time.

B1: CNG-CD19-701 (antibody, V domains shown)
VH: QVQLQESGPGLVKPSQTLSLTCTVSGGSISTSTMGVGWIRQHPGKGLEWIGFIWWDDDKRYNPNLKSRVTMSVDTSKNQFSLKLSSVTAADTAVYYCARMELWSYYFDYWGQGTLVTVSS
VL: EIVLTQSPATLSLSPGERATLSCSASSSVGYMHWYQQKPGQAPRLLIYDTSKLASGIPARFSGSGSGTDFTLTISSLEPEDFAVYYCFQGSVYPFTFGQGTKLEIK
In the case of B1, the Kd was 0.668 nM and the koff turned out to be 0.000168 s⁻¹.

B2: CNG-CD19-702 (antibody, V domains shown)
VH: B1 VH with I29T, T33G, G37S, F52H, N64V, M71I, Y109P
VL: B1 VL with G30S
On to B2, for which the Kd is 1.3 nM and the koff was 0.000295 s⁻¹.

As a reminder, the Kd is a measure of binding affinity in units of concentration. Read a high Kd as lower affinity. In general, koff refers to a measure of how fast the partners let go of each other. Low values mean a long-lived complex, high ones a short-lived complex.
